Measured values from the DeepSol protein solubility set.

Assay: soluble on expression in E. coli; label from the status in PepcDB or PDB records

Sequence	soluble on expression in E. coli
MDFDYVIAGGGSAGCTLAARLSEDPSKTVCLIEAGGAGSNLLIRAPAGIIALLPGRPKINNWAFETVPQQGLGGRKGYQPRGKALGGSSAINAMLYTRGHRGDYDEWADLGCDGWSWDEVLPYFRRAEGNQRGADALHGGDGPLRVAEQQEPRPLSRAFVEACGENQIRRNDDFNGVEQEGAGLYQVTQFWGERRNGERCSVAAAYLQPAMNRSNLTVITGAHATAVILDGKRATGVRYRAGKDEAVAKARREVIVCGGAFGSPQLLLLSGIGPAAELAMHGIPVIHELPGVGKNLQDHLDFIMGWTSKDADMMGIGLRGLPGLLRHMLRWRKDGGGMIATPYAEGGAFLKSDPAIERPDLQLHFCIAIVDDHGRKLHMGYGFSCHVCVLRPHSRGEVGLSTHDPMAPPRIDPRFLSDERDAELLLKGVRMMRGILEAPALARYRHKEIYTAGVSSDADLMSHIRARADTIYHPAGTCKMGVDELAVVDPQLRVHGLEALRVVDASVMPTLIGGNTNAPTIMIAEKAADMIKAAALEHHHHHH	not soluble
MDFECQFVCELKELAPVPALLIRTQTTMSELGSLFEAGYHDILQLLAGQGKSPSGPPFARYFGMSAGTFEVEFGFPVEGGVEGSGRVVTGLTPSGKAASSLYIGPYGEIEAVYDALMKWVDDNGFDLSGEAYEIYLDNPLEHHHHHH	not soluble
MDFETNEDINGVRFTWNVFPSTRSDANSNVVPVGCLYTPLKEYDELNVAPYNPVVCSGPHCKSILNPYCVIDPRNSSWSCPICNSRNHLPPQYTNLSQENMPLELQSTTIEYITNKPVTVPPIFFFVVDLTSETENLDSLKESIITSLSLLPPNALIGLITYGNVVQLHDLSSETIDRCNVFRGDREYQLEALTEMLTGQKPTGPGGAASHLPNAMNKVTPFSLNRFFLPLEQVEFKLNQLLENLSPDQWSVPAGHRPLRATGSALNIASLLLQGCYKNIPARIILFASGPGTVAPGLIVNSELKDPLRSHHDIDSDHAQHYKKACKFYNQIAQRVAANGHTVDIFAGCYDQIGMSEMKQLTDSTGGVLLLTDAFSTAIFKQSYLRLFAKDEEGYLKMAFNGNMAVKTSKDLKVQGLIGHASAVKKTDANNISESEIGIGATSTWKMASLSPYHSYAIFFEIANTAANSNPMMSAPGSADRPHLAYTQFITTYQHSSGTNRIRVTTVANQLLPFGTPAIAASFDQEAAAVLMARIAVHKAETDDGADVIRWLDRTLIKLCQKYADYNKDDPQSFRLAPNFSLYPQFTYYLRRSQFLSVFNNSPDETAFYRHIFTREDTTNSLIMIQPTLTSFSMEDDPQPVLLDSISVKPNTILLLDTFFFILIYHGEQIAQWRKAGYQDDPQYADFKALLEEPKLEAAELLVDRFPLPRFIDTEAGGSQARFLLSKLNPSDNYQDMARGGSTIVLTDDVSLQNFMTHLQQVAVSGQA	soluble
MDFLDFEKVFSFYSKATKKGFSPFFVPALEKAEEPAGNFFLDRKGNLFSIREDFTKTVLNHRKRYSPDSQIKVWYADFVYRYSGSDLVAEYQLGLEKVPRNSLDDSLEVLEIIVESASEFFEGPVIVEIGHTGVYEDLLKEIPKDLHEKVLNLIDTKNLAEIEFLSHMKKIDLSRVEKIIEDSIYRRSPEHLKTMDLPLSVREDLLSASSFLQEKFPTVSVEIDLTLARTIEEYCGLIFTIYDTSSSRLVAAGGEYTVNGEKGVGGSIFLEGKTC	soluble
MDGFGSHPRTLAVDQWMDIVNGKGYGVGGTTQVYSTRPDSPKFQPSIPPPPGSTSKTRTTATPWRLIDAETKRKKRIATYKTYALEGKVKSTVKKGFHWIKDRYSHIIHG	soluble
MDGNDINIQKNEFSRDQSALLMMDQHSDHKNHESAIGEPGMSYTASQPALSSTEHQTPLVSEASVAAPQNHLNGNSHESVSEMDRNSVDFAIESVLMKARAYNKMGAPKDPRRKQHNPKSEPKIEPHVTDSSDNQAAMSNKMEAEAPKMESNQNYVSNGSEPPFRFVSISNFDEMKTKKKEVQEELKLEVDSDSEEDDVPEQKTPKESDRCGGCGKFTHEDDLIALEEEKKKEKEKPLMSKKKSHHHKKNDFQWIGCDSCQTWYHFLCSGLEQFEYYLYEKFFCPKCVPHTGHSIRYKVVAPHRYRWYSPNEKHLGIEVGSKTWIEDFITRENTVPSPTDDEVCIVEDGYEFRREFEKLGGADNWGKVFMVKDMDGLNMTMPKPGFDLEDVVKIMGSDYEVDTIDVYNQSTYSMKLDTFRKLFRDTKNRPLLYNFLSLEFSDNNEMKEIAKPPRFVQEISMVNRLWPDVSGAEYIKLLQREEYLPEDQRPKVEQFCLAGMAGSYTDFHVDFGGSSVYYHILKGEKIFYIAAPTEQNFAAYQAHETSPDTTTWFGDIANGAVKRVVIKEGQTLLIPAGWIHAVLTPVDSLVFGGNFLHLGNLEMQMRVYHLENAIRKEIRSEEKFYFPNFELLHWMYMRNVLLEKITEANQEGSDMREQEKNIWTASQIMKAEMERWMDRELRLGPEKNAILPTDDKNKIMISVRKQIEIQTKIQNAKNKPMGLKQKRKSRESAERDDEDYCPSSSTAYKKKYTKKAKKDNDDAPKVKKAKKEEVPEEKVPVPEAAGPSEVTAPLTIKIGMGPTEDQKGVVQIFNNQCTSSGRKVKLNQNVADYCGSHLEARVEEIPEKATKSFRELDNELERCEAVHSGEKIKKVKEPKPPKQPKEKKEKPPPKKKEMSSRDRLMKKLKM	not soluble
MDGVHDLAGVQGFGKVPHTVNADIGPTFHAEWEHLPYSLMFAGVAELGAFSVDEVRYVVERMEPRHYMMTPFYERYVIGVATLMVEKGILTQDELESLAGGPFPLSRPSESEGRPAPVETTTFEVGQRVRVRDEYVPGHIRMPAYCRGRVGTISHRTTEKWPFPDAIGHGRNDAGEEPTYHVKFAAEELFGSDTDGGSVVVDLFEGYLEPAA	soluble
MDHLPIFCQLRDRDCLIVGGGDVAERKARLLLEAGARLTVNALTFIPQFTVWANEGMLTLVEGPFDETLLDSCWLAIAATDDDTVNQRVSDAAESRRIFCNVVDAPKAASFIMPSIIDRSPLMVAVSSGGTSPVLARLLREKLESLLPQHLGQVARYAGQLRARVKKQFATMGERRRFWEKFFVNDRLAQSLANADEKAVNATTERLFSEPLDHRGEVVLVGAGPGDAGLLTLKGLQQIQQADIVVYDRLVSDDIMNLVRRDADRVFVGKRAGYHCVPQEEINQILLREAQKGKRVVRLKGGDPFIFGRGGEELETLCHAGIPFSVVPGITAASGCSAYSGIPLTHRDYAQSVRLVTGHLKTGGELDWENLAAEKQTLVFYMGLNQAATIQEKLIAFGMQADMPVALVENGTSVKQRVVHGVLTQLGELAQQVESPALIIVGRVVALRDKLNWFSNH	soluble
MDHRSSSPFLQILPPDEVEKLLHSMKQAKEELETLGNGDESLFLCPQKITHCSTVSWKPNNVLAPALPKQNALNFNGNEQLSHENEAHSEIPSLLTFQEKGEEDTVEVTRDNYNEIDTVEDFRSIEPALENSPKILVDDSMEATQTFIEETNDFQNDTVHSLDGTLEIENRRLCLLGMLVEMKEICKSVKVDLLLNLIPDLAPVAVQACNSASSLSRKEAIYCLVYMVKQVGAEEMEKYLEPLTTAKRTLLQIYIDRSSKDDSK	not soluble
MDIAEQLIQNAGKRSTPVRSAVLGVLLNAEDVLSHSEVLEHLQQLGAFDRVTVYRALDWLVTQGLVHKVAGAGRAWRFQVTRSESMHRHAHFQCHHCHKVFCLPEVQPVLPKELPSNFSIDSIELNIKGICADCGRAMMSQ	not soluble
MDIKIIKDKKNPLLNRRELDFIVKYEGSTPSRNDVRNKLAAMLNAPLELLVIQRIKTEYGMQESKGYAKLYEDADRMKQVEQEYVLKRNAVPGSETEGEEALEHHHHHH	soluble
MDILILFYNTMWGFPLEFRKEDLPGGCVITTDRNLIAKADAVVFHLPDLPSVMEDEIDKREGQLWVGWSLECEENYSWTKDPEFRESFDLWMGYHQEDDIVYPYYGPDYGKMLVTARREKPYKKKACMFISSDMNRSHRQEYLKELMQYTDIDSYGKLYRNCELPVEDRGRDTLLSVIGDYQFVISFENAIGKDYVTEKFFNPLLAGTVPVYLGAPNIREFAPGENCFLDICTFDSPEGVAAFMNQCYDDEALYERFYAWRKRPLLLSFTKKLEQVRSNPLIRLCQKIHELKLGGILEHHHHHH	not soluble
